Test results from patent US20070089183A1 (WASHINGTON STATE UNIVERSITY, published 2007).

Target: dansyl-CaM (Sigma) (Homo sapiens (Human), UniProt P0DP23 2-149)
Experiment: fluorescence titration of dansyl-CaM with increasing amounts of peptide

Kd: 24.2 nM
Binder: CRKKYRAIGTFMSVYYKSKKGR (also called synthetic DWF1 CaMBD) [synthetic DWF1 CaM-binding peptide (518-539), CRKKYRAIGTFMSVYYKSKKGR]
